Laboratory results as given in patent US20220031806A1 (Five Prime, published 2022).

Molecular target: T1, mouse PD-L1 on mouse splenocytes (mouse, UniProt Q9EP73 19-290)
T1 construct: whole, on cells
Assay: flow cytometry receptor occupancy on BALB/c and C57Bl/6 splenocytes, free PD-L1 by competing Ab clone
Description: FIGS. 1A and 1B: Mouse splenocytes were evaluated for mCD80-Fc engagement and receptor occupancy. (A) Splenic immune cell subsets were identified as CD11b+ DCs (B220-Thy1.2−CD49b−CD11c+CD11b+), CD11b− DCs (B220− Thy1.2−CD49b-CD11c+CD11b−), Macrophages (B220−Thy1.2−CD49b−CD11c−CD11b+), NK cells (B220− Thy1.2−CD49b+), and T cells (CD3+CD4+ or CD3+CD8+) by flow cytometry. Representative flow cytometry plots depict the gating strategy. (B) Increasing concentrations of mCD80-Fc were incubated with mouse splenocytes (BALB/c strain top row; C57Bl/6 strain bottom row), and mCD80-Fc engagement was measured both via biotin-labeled anti-mIgG followed by streptavidin Alexa488 (“bound drug”) and by detection of CD80 ligands with competing Ab clones (“free” PD-L1 or CD28) enumerated as Antibody Binding Capacity (ABC) values. CTLA-4 was not detected on any immune cell evaluated (data not shown). L.D., limit of detection of ABC. Graphs depict mean±SD of n=3 animals/strain measured in technical duplicates. […]
Mouse splenocytes were prepared from adult BALB/c and […] mice by methods known to those of ordinary skill in the art. […] Data from the samples was acquired on a BD LSRII or BD LSRFortessa and analyzed using FlowJo, Excel, and Graphpad Prism.

T1 sequence (Q9EP73 19-290): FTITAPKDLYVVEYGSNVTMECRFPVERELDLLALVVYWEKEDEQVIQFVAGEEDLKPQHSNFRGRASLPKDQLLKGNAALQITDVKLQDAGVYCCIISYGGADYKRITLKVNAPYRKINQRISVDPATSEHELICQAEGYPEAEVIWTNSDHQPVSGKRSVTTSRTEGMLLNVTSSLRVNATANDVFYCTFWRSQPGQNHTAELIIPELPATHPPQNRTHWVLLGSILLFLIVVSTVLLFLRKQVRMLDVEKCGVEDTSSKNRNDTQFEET

binding result: no binding (tested: 0-1000 µg/mL)
B1: mouse surrogate fusion protein comprising the extracellular domain (ECD) of murine CD80 linked to the Fc domain of mouse IgG2a wild type (mCD80-Fc) (Fc fusion)
chain: VDEQLSKSVKDKVLLPCRYNSPHEDESEDRIYWQKHDKVVLSVIAGKLKVWPEYKNRTLYDNTTYSLIILGLVLSDRGTYSCVVQKKERGTYEVKHLALVKLSIKADFSTPNITESGNPSADTKRITCFASGGFPKPRFSWLENGRELPGINTTISQDPESELYTISSQLDFNTTRNHTIKCLIKYGDAHVSEDFTWEKPPEDPPDSKNEPRGPTIKPCPPCKCPAPNLLGGPSVFIFPPKIKDVLMISLSPIVTCVVVDVSEDDPDVQISWFVNNVEVHTAQTQTHREDYNSTLRVVSALPIQHQDWMSGKEFKCKVNNKDLPAPIERTISKPKGSVRAPQVYVLPPPEEEMTKKQVTLTCMVTDFMPEDIYVEWTNNGKTELNYKNTEPVLDSDGSYFMYSKLRVEKKNWVERNSYSCSVVHEGLHNHHTTKSFSRTPGK
notes: also called Murine CD80 ECD Fusion Molecules; Mouse CD80 ECD mouse Fc IgG2a
